Data published in paper PMC314469, “Protein Interaction Networks by Proteome Peptide Scanning” (PLoS Biology, 2004).

How the values were obtained:
[1] = biological target: T1, amphyphisin SH3 (AMPH_HUMAN), P49418; assay: SPOT array
T1 chain: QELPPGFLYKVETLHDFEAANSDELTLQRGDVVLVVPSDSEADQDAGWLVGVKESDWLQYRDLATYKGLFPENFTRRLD

[2] = biological target: endophilin SH3 (SH3G2_HUMAN), Q99962; assay: SPOT array

Binder: ATGTLKRPTSLSRH [Q92619 87-100]
- normalised SPOT signal, Boehringer light units (BLU); mean over the file's lines of this peptide [1]: 32.9
- normalised SPOT signal, Boehringer light units (BLU); mean over the file's lines of this peptide [2]: 23.6

Binder: RDFIISRPTKLKSL [Q9Y6K5 932-945]
- normalised SPOT signal, Boehringer light units (BLU); mean over the file's lines of this peptide [1]: 108
- normalised SPOT signal, Boehringer light units (BLU); mean over the file's lines of this peptide [2]: 182

Binder: RDLIFKRPSRQFQY [Q92797 568-581]
- normalised SPOT signal, Boehringer light units (BLU); mean over the file's lines of this peptide [1]: 5070
- normalised SPOT signal, Boehringer light units (BLU); mean over the file's lines of this peptide [2]: 190

Binder: REAALERPRRTKRE [Q96LA8 29-42]
- normalised SPOT signal, Boehringer light units (BLU); mean over the file's lines of this peptide [1]: 2500
- normalised SPOT signal, Boehringer light units (BLU); mean over the file's lines of this peptide [2]: 330

Binder: REAGFKRPVVLFGP [Q9UDY2 725-738]
- normalised SPOT signal, Boehringer light units (BLU); mean over the file's lines of this peptide [1]: 24.6
- normalised SPOT signal, Boehringer light units (BLU); mean over the file's lines of this peptide [2]: 23.8

Binder: REASFKRPVVILGP [O95049 627-640]
- normalised SPOT signal, Boehringer light units (BLU); mean over the file's lines of this peptide [1]: 47.4
- normalised SPOT signal, Boehringer light units (BLU); mean over the file's lines of this peptide [2]: 18.3

Binder: REDRFRRPRDEGGW [Q14152 1235-1248]
- normalised SPOT signal, Boehringer light units (BLU); mean over the file's lines of this peptide [1]: 46
- normalised SPOT signal, Boehringer light units (BLU); mean over the file's lines of this peptide [2]: 116

Binder: REKKPPRPPKKKYQ [Q9NR48 1976-1990]
- normalised SPOT signal, Boehringer light units (BLU); mean over the file's lines of this peptide [1]: 56.2
- normalised SPOT signal, Boehringer light units (BLU); mean over the file's lines of this peptide [2]: 6480

Binder: RELDLSRPSRSISL [Q12879 1300-1313]
- normalised SPOT signal, Boehringer light units (BLU); mean over the file's lines of this peptide [1]: 3150
- normalised SPOT signal, Boehringer light units (BLU); mean over the file's lines of this peptide [2]: 98.7

Binder: REVSLKRPLGNSPG [P17036 132-145]
- normalised SPOT signal, Boehringer light units (BLU); mean over the file's lines of this peptide [1]: 39.7
- normalised SPOT signal, Boehringer light units (BLU); mean over the file's lines of this peptide [2]: 55.7

Binder: RFALFKRPKANGVK [Q9GZY5 40-53]
- normalised SPOT signal, Boehringer light units (BLU); mean over the file's lines of this peptide [1]: 19.2
- normalised SPOT signal, Boehringer light units (BLU); mean over the file's lines of this peptide [2]: 13.5

Binder: ATPLPRRPQPRDLG
- normalised SPOT signal, Boehringer light units (BLU); mean over the file's lines of this peptide [1]: 132
- normalised SPOT signal, Boehringer light units (BLU); mean over the file's lines of this peptide [2]: 6070

Binder: RGAQLRRPRHSHLT [Q13399 123-136]
- normalised SPOT signal, Boehringer light units (BLU); mean over the file's lines of this peptide [1]: 25.3
- normalised SPOT signal, Boehringer light units (BLU); mean over the file's lines of this peptide [2]: 53.2

Binder: RGAQLRRPRHSHPT [Q16360 129-142]
- normalised SPOT signal, Boehringer light units (BLU); mean over the file's lines of this peptide [1]: 53.3
- normalised SPOT signal, Boehringer light units (BLU); mean over the file's lines of this peptide [2]: 40.1

Binder: RGDDLRRPATMKGK [Q96T37 35-48]
- normalised SPOT signal, Boehringer light units (BLU); mean over the file's lines of this peptide [1]: 30
- normalised SPOT signal, Boehringer light units (BLU); mean over the file's lines of this peptide [2]: 144

Binder: RGERLPRPDKSPSE [P29597 1130-1143]
- normalised SPOT signal, Boehringer light units (BLU); mean over the file's lines of this peptide [1]: 3.2
- normalised SPOT signal, Boehringer light units (BLU); mean over the file's lines of this peptide [2]: 116

Binder: RGFLPYRPPRPAFF [Q96RT6 725-739]
- normalised SPOT signal, Boehringer light units (BLU); mean over the file's lines of this peptide [1]: 7280
- normalised SPOT signal, Boehringer light units (BLU); mean over the file's lines of this peptide [2]: 13700

Binder: RGGPPSKPPAPEDE [P48634 419-433]
- normalised SPOT signal, Boehringer light units (BLU); mean over the file's lines of this peptide [1]: 38.6
- normalised SPOT signal, Boehringer light units (BLU); mean over the file's lines of this peptide [2]: 33.5

Binder: RGGPPPRPPPRQSL [Q9HCU4 2874-2888]
- normalised SPOT signal, Boehringer light units (BLU); mean over the file's lines of this peptide [1]: 17900
- normalised SPOT signal, Boehringer light units (BLU); mean over the file's lines of this peptide [2]: 17200

Binder: RGIQFKRPHTVAPW [O43561 47-60]
- normalised SPOT signal, Boehringer light units (BLU); mean over the file's lines of this peptide [1]: 35.2
- normalised SPOT signal, Boehringer light units (BLU); mean over the file's lines of this peptide [2]: 28.6

Binder: RGQEFRRPSTLSEL [P13674 520-533]
- normalised SPOT signal, Boehringer light units (BLU); mean over the file's lines of this peptide [1]: 38.7
- normalised SPOT signal, Boehringer light units (BLU); mean over the file's lines of this peptide [2]: 158

Binder: RHASPARPPAARSQ [Q96JG1 528-542]
- normalised SPOT signal, Boehringer light units (BLU); mean over the file's lines of this peptide [1]: 434
- normalised SPOT signal, Boehringer light units (BLU); mean over the file's lines of this peptide [2]: 4680

Binder: ATPLPRRPQPRQFF
- normalised SPOT signal, Boehringer light units (BLU); mean over the file's lines of this peptide [1]: 151
- normalised SPOT signal, Boehringer light units (BLU); mean over the file's lines of this peptide [2]: 19900

Binder: RHLAPNRPSKSRTD [Q9NTH0 93-106]
- normalised SPOT signal, Boehringer light units (BLU); mean over the file's lines of this peptide [1]: 530
- normalised SPOT signal, Boehringer light units (BLU); mean over the file's lines of this peptide [2]: 257

Binder: RHLILKRPGFQEHE [Q96JB4 119-132]
- normalised SPOT signal, Boehringer light units (BLU); mean over the file's lines of this peptide [1]: 67.7
- normalised SPOT signal, Boehringer light units (BLU); mean over the file's lines of this peptide [2]: 128

Binder: RHLSPRRPVSPGKD [P31629 1496-1509]
- normalised SPOT signal, Boehringer light units (BLU); mean over the file's lines of this peptide [1]: 60.1
- normalised SPOT signal, Boehringer light units (BLU); mean over the file's lines of this peptide [2]: 332

Binder: RHPKPLKPPWHLSM [P41215 45-59]
- normalised SPOT signal, Boehringer light units (BLU); mean over the file's lines of this peptide [1]: 76.6
- normalised SPOT signal, Boehringer light units (BLU); mean over the file's lines of this peptide [2]: 3220

Binder: RHPRPRRPGGPALR [Q9H7T3 112-125]
- normalised SPOT signal, Boehringer light units (BLU); mean over the file's lines of this peptide [1]: 92.1
- normalised SPOT signal, Boehringer light units (BLU); mean over the file's lines of this peptide [2]: 266

Binder: RHQRLHRPGRPVPG [Q92657 54-67]
- normalised SPOT signal, Boehringer light units (BLU); mean over the file's lines of this peptide [1]: 11.8
- normalised SPOT signal, Boehringer light units (BLU); mean over the file's lines of this peptide [2]: 64.3

Binder: RHWRPWRPDKTKKQ [Q9NWH6 590-603]
- normalised SPOT signal, Boehringer light units (BLU); mean over the file's lines of this peptide [1]: 580
- normalised SPOT signal, Boehringer light units (BLU); mean over the file's lines of this peptide [2]: 568

Binder: RIIAFSRPVKYEDV [Q99759 56-69]
- normalised SPOT signal, Boehringer light units (BLU); mean over the file's lines of this peptide [1]: 113
- normalised SPOT signal, Boehringer light units (BLU); mean over the file's lines of this peptide [2]: 79.6

Binder: RILQFPRPVKLEDL [Q9Y2U5 55-68]
- normalised SPOT signal, Boehringer light units (BLU); mean over the file's lines of this peptide [1]: 108
- normalised SPOT signal, Boehringer light units (BLU); mean over the file's lines of this peptide [2]: 119

Binder: RKFSLERPFRPSVT [Q9BXL7 634-647]
- normalised SPOT signal, Boehringer light units (BLU); mean over the file's lines of this peptide [1]: 797
- normalised SPOT signal, Boehringer light units (BLU); mean over the file's lines of this peptide [2]: 105

Binder: AVAIPNRPPDAVLT [P51659 480-494]
- normalised SPOT signal, Boehringer light units (BLU); mean over the file's lines of this peptide [1]: 49.8
- normalised SPOT signal, Boehringer light units (BLU); mean over the file's lines of this peptide [2]: 79.1

Binder: RKMEIYRPHKANAE [Q13547 49-62]
- normalised SPOT signal, Boehringer light units (BLU); mean over the file's lines of this peptide [1]: 90.1
- normalised SPOT signal, Boehringer light units (BLU); mean over the file's lines of this peptide [2]: 78.7

Binder: RKMEIYRPHKATAE [Q92769 50-63]
- normalised SPOT signal, Boehringer light units (BLU); mean over the file's lines of this peptide [1]: 16.3
- normalised SPOT signal, Boehringer light units (BLU); mean over the file's lines of this peptide [2]: 179

Binder: RKPELERPIKVNLA [Q01650 421-434]
- normalised SPOT signal, Boehringer light units (BLU); mean over the file's lines of this peptide [1]: 103
- normalised SPOT signal, Boehringer light units (BLU); mean over the file's lines of this peptide [2]: 123

Binder: RKPKPERPPSSSSS [Q9BW08 289-303]
- normalised SPOT signal, Boehringer light units (BLU); mean over the file's lines of this peptide [1]: 66.8
- normalised SPOT signal, Boehringer light units (BLU); mean over the file's lines of this peptide [2]: 7630

Binder: RKWYPLRPKKINLD [Q9NRN8 254-267]
- normalised SPOT signal, Boehringer light units (BLU); mean over the file's lines of this peptide [1]: 177
- normalised SPOT signal, Boehringer light units (BLU); mean over the file's lines of this peptide [2]: 204

Binder: AAAVPRRPTQQGTV [Q96SQ5 2-15]
- normalised SPOT signal, Boehringer light units (BLU); mean over the file's lines of this peptide [1]: 38.9
- normalised SPOT signal, Boehringer light units (BLU); mean over the file's lines of this peptide [2]: 182

Binder: RLAALKRPDDVPLS [Q9UFC0 277-290]
- normalised SPOT signal, Boehringer light units (BLU); mean over the file's lines of this peptide [1]: 38
- normalised SPOT signal, Boehringer light units (BLU); mean over the file's lines of this peptide [2]: 49.2

Binder: RLAGPPRPPGHPRE [Q9BQU6 64-78]
- normalised SPOT signal, Boehringer light units (BLU); mean over the file's lines of this peptide [1]: 162
- normalised SPOT signal, Boehringer light units (BLU); mean over the file's lines of this peptide [2]: 2700
